Data: patent US20240210401A1, “METHOD OF USING PACAP AND VIP PEPTIDES FOR DETECTING SHED OR CIRCULATING TUMOR CELLS IN BIOLOGICAL FLUIDS” (Thomas Jefferson University, priority 2013, published 2024)

Target: T1, VPAC1 receptors expressed on the cell membrane of prostate cancer cells (Homo sapiens, UniProt P32241)
T1 construct: VPAC1 receptors expressed on the cell membrane of prostate cancer cells; endogenous in cells; host or cells: prostate cancer cells cytospun from patients' urine
T1 sequence (P32241 31-457): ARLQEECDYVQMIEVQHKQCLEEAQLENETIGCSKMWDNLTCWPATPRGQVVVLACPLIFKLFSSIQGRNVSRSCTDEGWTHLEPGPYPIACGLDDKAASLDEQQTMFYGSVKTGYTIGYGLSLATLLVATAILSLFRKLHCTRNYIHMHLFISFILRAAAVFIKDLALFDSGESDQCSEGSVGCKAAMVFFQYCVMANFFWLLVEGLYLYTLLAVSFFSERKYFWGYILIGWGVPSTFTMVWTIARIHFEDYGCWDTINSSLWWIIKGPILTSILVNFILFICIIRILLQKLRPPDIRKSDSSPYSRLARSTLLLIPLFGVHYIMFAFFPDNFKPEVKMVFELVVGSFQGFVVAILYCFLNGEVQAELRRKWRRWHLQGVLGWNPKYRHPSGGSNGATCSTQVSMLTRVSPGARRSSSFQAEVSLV
Test: Confocal imaging of cells from urine samples of prostate cancer patients
Type: cell-based
Description: The PACAP peptide, […]γAba-Lys (R) (SEQ ID NO: 7), was synthesized on a Wang resin using an ABI 341A peptide synthesizer (Applied Biosystems, Foster City, CA). The 27-amino acid long PACAP sequence was then assembled by standard Fmoc chemistry and coupled with a free sulfhydryl group attached to the C-terminus. This C-terminal sulfhydryl group was then reacted with a maleimide functionalized NIR dye to yield TP4303.
Urine samples from two patients, one with early phase prostate cancer and the other with advanced prostate cancer, were cytospinned, and cells were collected on glass slides. The cells were incubated with TP4303, washed with phosphate-buffered saline (PBS) and the slide was dried. The cells were treated with DAPI (4′,6-diamidino-2-phenylindole, a fluorescent stain that binds strongly to A-T rich regions in cellular DNA), a cover slip was placed on the sample and confocal microscopic analysis was performed (excitation, […]; emission, […]).

His-Ser-Asp-Gly-Ile-Phe-Thr-Asp-Ser-Tyr-Ser-Arg-Tyr-Arg-Lys-Gln-Met-Ala-Val-Lys-Lys-Tyr-Leu-Ala-Ala-Val-Leu-γAba-Lys (R) (SEQ ID NO: 7) (HSDGIFTDSYSRYRKQMAVKKYLAAVLEK; maleimide NIR dye conjugated via C-terminal sulfhydryl; MOD_RES 28 4Abu) [TP4303, PACAP peptide with C-terminal sulfhydryl group reacted with a maleimide functionalized NIR dye]
interaction with epithelial cells (epithelial cells in the urine samples, identified by DAPI, not expressing VPAC1): did not interact
interaction with sperm (sperm in the urine sample, identified by DAPI, not expressing VPAC1): did not interact
binding to VPAC1 receptors on prostate cancer cells (urine of two patients (early phase and advanced prostate cancer), confocal microscopy): bound
